From publication PMC11961569

Target: EfpA^EM (BRIL-P171R EfpA, Mycobacterium tuberculosis efflux protein A) (not stated | Mycobacterium tuberculosis) (UniProt P9WJY4)
Assay: cryo-EM structure; EfpA-EM mixed with anti-BRIL Fab and anti-Fab elbow Nb (1:1.5:2), separated on Superose 6 in 50 mM Tris-Cl pH 7.5, 300 mM NaCl, 0.02% GDN; apo sample gave antiparallel (dominant) and parallel dimers; samples with BRD-8000.3 or BRD-9327 gave antiparallel dimers

In the case of “EfpA^EM (BRIL-P171R EfpA, Mycobacterium tuberculosis efflux protein A) (from UniProt P9WJY4 49-530)”, the stoichiometry N is reported as 2.
